Experiments:
[1] = test system: C3H Hearts in C57BL/6 Recipients; experiment: Heterotopic heart transplantation, graft survival, C3H to C57BL/6
Procedure: Hearts were removed from donor mice as indicated and transplanted into the peritoneal cavity of recipient mice (i.e., heterotopic transplantation). Recipient mice were treated as indicated, with some treatments beginning prior to transplantation. Survival of the allograft was monitored and scored as follows: “A,” beating strongly; “B,” mild decline in the intensity of pulsation; “C,” noticeable decline in the intensity of pulsation; “D,” complete cessation of cardiac impulses. Mean survival time of the transplanted tissue was determined for each treatment.
In a further set of experiments, C3H mouse hearts were transplanted into the peritoneal cavity of C57BL/6 mice (results shown in Table 3 and FIG. 7). […] Other treatments included subtherapeutic doses of either anti-CD45RB monoclonal antibody (“mAb”) (i.e., 100 μg/mouse every day from days 0 through 14 by intravenous injection) or sirolimus (i.e., 2 mg/kg every day from days 0 through 14 by oral administration (“p.o.”)).

CD4+ T cells = experiment: Regulatory T cell generation from purified CD4+ T cells; type: cell-based, cynomolgus monkeys; conditions: CD4+ T cells stimulated for 6 days
Excerpt: To evaluate the effect of sCD83 on CD4^+ T cells, these cells were purified from cynomolgus monkeys and then stimulated in the presence or absence of sCD83 or anti-CD28 mAb for 6 days. Cells were then stained to identify regulatory T cells (i.e., CD4^+CD25^+ Foxp3^+ cells) and analyzed by FACS.

dendritic cells = conditions: soluble CD83 4 μg/ml in final maturation step, cited from earlier work
[2] = test system: C57BL/6 Hearts in BALB/c Recipients; experiment: Intra-abdominal heterotopic heart transplantation, graft survival, C57BL/6 to BALB/c; type: in vivo, mouse; conditions: sCD83 100 μg i.p. daily day -1 to 7, then every other day to day 28, tacrolimus 8 mg/kg/day oral, MMF 80 mg/kg/day oral
Procedure: Treatment with tacrolimus was by daily oral administration of a subtherapeutic dose of 8 mg/kg/day, and treatment with MMF was by daily oral administration of a low dose of 80 mg/kg/day.
In further experiments, transplant recipients were treated with a shorter course of administrations and a different route of administration.

monocytes = experiment: TNF-α and activation markers in monocytes of PBMCs; type: cell-based, cynomolgus monkeys; conditions: PBMCs incubated overnight with sCD83
Procedure: To evaluate the effect of sCD83 on monocytes, isolated PBMCs (1×10^6 cells) from cynomolgus monkeys were incubated overnight with sCD83 (1×10^6 cells). Intracellular TNF-α levels and surface markers were detected in monocytes using FACS. Results representative of one out of three experiments are shown in FIG. 12; results were expressed as % positive cells and mean fluorescence units (MFU).

[3] = test system: B cells of transplant recipient; experiment: Ex vivo IgM and IgG production by transplant recipient B cells; parameters: species or system mouse; conditions: C3H heart in C57BL/6; sCD83 100 μg daily i.p.; B cells day 8, LPS, 72 hours
Procedure: IgM & IgG production: C57B1/6 mice were given a heterotopic cardiac allograft from a C3H mouse. Mice then were left untreated or were treated with a daily dose of 100 μg of sCD83 by intraperitoneal injection. Mice were then sacrificed on day 8, which was approximately the mean survival time of untreated mice. B cells were harvested from the spleens of recipient mice and cultured at 2×10^6 B-cells/well with 20 ug/mL LPS (to induce antibody production, with no added sCD83). After 72 hours of culture, supernatants were harvested and IgM and IgG production measured by ELISA.
Eight days after transplantation (when the transplant would typically be rejected in untreated mice), the mice were sacrificed. B cells were purified from recipient mice, cultured, and stimulated with LPS. After 72 hours of culture, supernatants were collected and IgM and IgG production was measured using ELISA.

mDCs = experiment: TNF-α and activation markers in mDCs of PBMCs stimulated with LPS and IFN-γ; type: cell-based, cynomolgus monkeys; conditions: PBMCs incubated overnight with sCD83; LPS 1 μg/ml and IFN-γ 100 U/ml for 6 hours
Excerpt: We wished to examine the in vitro functional properties of human sCD83 on peripheral blood DCs, monocytes, and T cells. Mature DCs (“mDCs”) from cynomolgus monkeys were identified using FACS with four-color staining as cells that were HLA-DR positive, lineage negative (i.e. CD3, CD20, CD14, and CD16 negative), and CD11c positive. Intracellular TNF-α, IL-6, and surface markers CD83, CD80, CD86, and CCR5 (which are increased in activated, mature DCs) were also monitored.
To evaluate the effect of sCD83 on mDCs, isolated PBMCs (1×10^6 cells) from cynomolgus monkeys were incubated overnight with sCD83. Cells were stimulated with LPS (1 μg/ml) and IFN-γ (100 U/ml) for 6 hours. Intracellular TNF-α levels and surface markers were detected in mDCs using FACS. Results representative of one out of three experiments are shown in FIG. 11; results were expressed as % positive cells and mean fluorescence units (MFU).

B1: sCD83: recombinant extracellular domain of human CD83 cleaved from GST fusion, with four extra amino acids (Gly-Ser-Pro-Gly) at the amino terminal (protein, listed as Homo sapiens)
chain: GSPGTPEVKVACSEDVDLPCTAPWDPQVPYTVSWVKLLEGGEERMETPQEDHLRGQHYHQKGQNGSFDAPNERPYSLKIRNTTSCNSGTYRCTLQDPDGQRNLSGKVILRVTGCPAQRKEETFKKYRAE
modifications: printed: Gly-Ser-Pro-Gly; (1)..(125) Extracellular domain of human CD83
notes: recombinant extracellular domain of human CD83 cleaved from GST fusion, with four extra amino acids (Gly-Ser-Pro-Gly) at the amino terminal
Acute rejection / graft acceptance (in words) ([1]; sCD83 100 μg): reduced symptoms of acute rejection | MST ([1]; sCD83 100 μg i.p. daily days 1-7 then q.o.d. days 8-16, sirolimus 2 mg/kg p.o. days 0-14, anti-CD45RB mAb 100 μg i.v. days 0-14): 10.7 ± 1.5 days | MST ([1]; sCD83 266 ug): 14.7 ± 0.6 days | MST ([1]; sCD83 400 ug): 15 ± 1.0 days | Generation of regulatory T cells (CD4+CD25+ Foxp3+ cells) (CD4+ T cells): promoted the generation of regulatory T cells | CD14 positive cells (dendritic cells; compared with normally matured DCs): increase | Cell surface expression of CD80 (dendritic cells; normally matured DCs 96%): 66% | Cell surface expression of CD83 (dendritic cells; normally matured DCs 96%): 30% | MST [2]: 15.8 ± 1.0 days | In vitro production of TNF-α by monocytes (monocytes): moderately suppressed | Surface expression of monocyte activation markers (monocytes): moderately suppressed | Ex vivo antibody production (IgM and IgG, ELISA) [3]: suppresses | In vitro production of TNF-α by mDCs (mDCs): suppressed | Surface expression of mDC activation markers CD83, CD86, CCR5, and CD80 (mDCs): suppressed

From patent US20230158109A1, “USE OF CD83 IN COMBINATION THERAPIES” (Colmmune, Inc., priority 2006, published 2023)
